Measurements as given in publication PMC6987245.

Key:
[1] = target: TAMRA-labeled UBXN1 UBA(ext1-52) domain (UniProt Q04323); assay: MST; TAMRA-UBA peptide in FP binding buffer, K6 diUb 1.53 to 50 μM, 30 min incubation, hydrophobic capillaries, Monolith NT.115, 30% LED and 40% IR-laser power
[2] = target: TAMRA-labeled UBXN1 UBA(ext1-52) domain (UniProt Q04323); assay: fluorescence polarisation; 5 nM TAMRA-labeled UBA peptide fixed, diubiquitin 0.78 to 25 μM in six steps, triplicate; overnight incubation at 4°C, read at room temperature; 20 mM Tris pH 7.6, 150 mM NaCl, 0.5 mg/ml BGG, 1% TX-100; one site binding (hyperbola) fit

UniProt Q04323, sequence (Q04323 1-52): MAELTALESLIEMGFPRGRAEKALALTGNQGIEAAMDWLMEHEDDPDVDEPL

K6-linked diubiquitin (native, unlabeled) (from UniProt P0CG48 1-76; P0CG48 1-76)
Kd [1]: 1.05 µM
Kd [2]: 1.43 µM
